Source: article PMC7155755, “Binding of the Human 14-3-3 Isoforms to Distinct Sites in the Leucine-Rich Repeat Kinase 2” (Frontiers in Neuroscience, 2020)
Entries after “also recorded” stand apart in the source; their conditions may differ. Blank lines part the entries; values can stand above or below the molecule they belong to. Square brackets hold non-standard residues; d marks the D form. Ends that are not written are not given here. fluorescein = N-terminal fluorescein label; pS = N[C@@H](COP(=O)(O)O)C(=O)O

What was measured:
human 14-3-3 isoform σ = target: T1, human 14-3-3 isoform σ (Homo sapiens, UniProt P31947); assay: Fluorescence polarization (FP) direct binding assay; conditions: fluorescein-labeled peptide 1 nM
T1 construct: MBP (cleaved yes); made in house; host or cells: E. coli BL21DE3
T1 sequence (P31947 1-248): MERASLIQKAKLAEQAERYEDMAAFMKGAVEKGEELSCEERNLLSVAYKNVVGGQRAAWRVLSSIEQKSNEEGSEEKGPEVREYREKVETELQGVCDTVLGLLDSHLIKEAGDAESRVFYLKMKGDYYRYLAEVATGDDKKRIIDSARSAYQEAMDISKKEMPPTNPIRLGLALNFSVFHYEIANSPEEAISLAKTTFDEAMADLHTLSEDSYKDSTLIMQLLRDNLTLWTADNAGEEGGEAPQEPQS
Protocol: (§1) Human MBP-tagged 14-3-3 isoforms were expressed from pMAL2CX plasmids [[Kilisch et al. (2016)], [Yuan et al. (2003)]] in E. coli BL21DE3 cells. After induction with […] isopropyl-β-D-thiogalactoside, the protein was expressed for 4 h at room temperature. Cells were lysed in MBP-lysis buffer [50 mM Tris–HCl pH 7.5, 150 mM NaCl, 5 mM MgCl2, 1 mM PMSF, 1× cOmplete Protease Inhibitor EDTA-free (Roche)] using a French Pressure cell (FRENCH Press, Thermo, United States). Following centrifugation at 42,000 × g and 4°C for 30 min, the supernatant was transferred to a Maltose-agarose column (1.5 ml bed volume; New England Biolabs GmbH, Germany). Captured proteins were washed six times with 10 ml wash buffer (50 mM Tris–HCl pH 7.5, 150 mM NaCl, 5 mM MgCl2) prior to elution using wash buffer including 15 mM D-maltose. To remove the MBP tag, fusion proteins were incubated with Factor Xa (New England Biolabs GmbH, Germany), at a final concentration of 0.4 μg per 1 mg fusion protein for 24 h at RT following another 72 h at 4°C. Anion exchange chromatography was finally applied to separate residual MBP using a buffer gradient from 20 mM Tris pH 8 to 20 mM Tris pH 8 with 1 M NaCl. For this a RESOURCE Q column (GE Healthcare, United Kingdom) was utilized, employing an ÄKTApurifier (GE Healthcare, United Kingdom) or an NGC Quest Chromatography System (Bio-Rad Laboratories GmbH, Germany).
(§2) FP was used to determine binding affinities of different phosphorylated and non-phosphorylated peptides derived from LRRK2 sequences (Peps4LS GmbH, Germany) toward human 14-3-3 isoforms. Direct binding assays were performed and evaluated as previously described ([Muda et al., 2014]; [Manschwetus et al., 2019]). Briefly, both dilution series of 14-3-3 isoforms ranging from final concentrations of at least 5 μM down to picomolar concentrations and dilutions of the respective fluorescein-labeled peptide (final conc. 1 nM) were prepared in FP buffer (20 mM MOPS pH 7, 150 mM NaCl, 0.005% CHAPS). Subsequently, samples were mixed in 384-well microtiter plates as duplicates (BRAND plates, pureGrade, black, BRAND GmbH & Co. KG, Germany) in a 1:1 ratio and measured using a CLARIOstar plate reader (BMG LABTECH, Germany). Two protein preparations were utilized for at least two independent replications for all measurements while high affinity binding peptides were particularly measured with a minimum of three independent replications for statistical evaluation. Data was analyzed with GraphPad Prism 6.0 (GraphPad Software, San Diego, CA, United States) by plotting obtained FP signals (mPol) against the logarithmic 14-3-3 protein concentrations. Data points represent means ± standard error of mean (SEM) of duplicates. “Ctrl.” indicates the FP signal of fluorescein-labeled peptides without 14-3-3 protein. Sigmoidal dose-response fitting was performed to define KD-values.

human 14-3-3γ = target: T2, human 14-3-3γ (Homo sapiens, UniProt P61981); assay: as above; conditions: dilution series of 14-3-3γ (at least 5 μM down to pM), fluorescein-labeled peptide 1 nM
T2 construct: MBP (cleaved yes); made in house; host or cells: E. coli BL21DE3
T2 sequence (P61981 1-247): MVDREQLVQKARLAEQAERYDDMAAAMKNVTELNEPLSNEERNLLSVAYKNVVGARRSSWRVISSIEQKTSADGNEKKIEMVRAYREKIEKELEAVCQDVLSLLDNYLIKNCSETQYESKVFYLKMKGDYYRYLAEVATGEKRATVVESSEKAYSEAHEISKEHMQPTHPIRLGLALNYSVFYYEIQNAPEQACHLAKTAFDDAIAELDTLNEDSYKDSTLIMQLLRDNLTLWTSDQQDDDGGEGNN
Protocol: as §1, §2

[1] = system: all seven human 14-3-3 isoforms; assay: Fluorescence polarization (FP) direct binding assay, statements over all isoforms; conditions: FP direct binding; all seven isoforms; fluorescein-labeled peptide 1 nM; FP buffer pH 7
Protocol: as §1, §2

human 14-3-3 isoform ϵ = target: T3, human 14-3-3 isoform ϵ (Homo sapiens, UniProt P62258); assay: Fluorescence polarization (FP) direct binding assay; conditions: fluorescein-labeled peptide 1 nM
T3 construct: MBP (cleaved yes); made in house; host or cells: E. coli BL21DE3
T3 sequence (P62258 1-255): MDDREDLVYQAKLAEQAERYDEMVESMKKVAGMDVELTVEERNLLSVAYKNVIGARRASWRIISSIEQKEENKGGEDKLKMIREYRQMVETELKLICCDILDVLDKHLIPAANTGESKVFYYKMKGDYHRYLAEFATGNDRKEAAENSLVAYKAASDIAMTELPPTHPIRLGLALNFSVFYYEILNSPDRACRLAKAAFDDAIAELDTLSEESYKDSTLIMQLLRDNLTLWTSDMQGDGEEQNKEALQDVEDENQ
Protocol: as §1, §2

14-3-3γ = 14-3-3γ (UniProt P61981); assay: fluorescence polarization direct binding
14-3-3ε = 14-3-3ε (UniProt P62258); assay: fluorescence polarization direct binding; conditions: reference: unphosphorylated S1443/S1444 peptide; sites S1444
pS1444 = assay: fluorescence polarisation; direct binding; dilution series of 14-3-3 isoform (at least 5 μM down to picomolar) mixed with 1 nM fluorescein-labelled peptide; 20 mM MOPS pH 7, 150 mM NaCl, 0.005% CHAPS; 384-well plates
R1441C/pS1444 = target: T4, R1441C/pS1444 (R1441C (stands in the printed letters)); assay: as above; conditions: both partners purified
T4 construct: LRRK2-derived peptide of the Roc domain with the familial PD mutation R1441C, phosphorylated at S1444; source: synthetic peptide (Peps4LS GmbH)
T4 peptide: fluorescein-LFNIKACAS[pS]SPVILVGT

Molecule: LFNIKARApSpSSPVILVGT [pS1443/pS1444, fluorescein-labeled LRRK2 Roc domain peptide doubly phosphorylated at S1443 and S1444]
Binding to 14-3-3 isoform ϵ, in words (human 14-3-3 isoform ϵ): not fitted due to an unusual binding behavior
Binding to 14-3-3γ, in words (human 14-3-3γ; FP buffer pH 7): reduced binding to 14-3-3γ compared to pS1444
Binding to the human 14-3-3 isoforms, in words [1]: micromolar affinities; also recorded: reduced nanomolar binding affinity to micromolar values

Molecule: LRRK2 (leucine-rich repeat kinase 2) (from UniProt Q5S007) pS910 peptide
binding against the reference (14-3-3γ; reference: unphosphorylated S910 peptide, sites S910): gained

Molecule: LRRK2 (leucine-rich repeat kinase 2) (from UniProt Q5S007) pS1443/pS1444 peptide
KD (14-3-3γ; reference: pS1444 peptide, sites S1443): weaker; reference 106 ± 4
binding against the reference (14-3-3γ; reference: unphosphorylated S1443/S1444 peptide, sites S1443,S1444): gained

Molecule: LRRK2 (leucine-rich repeat kinase 2) (from UniProt Q5S007) pS1444 peptide
KD (14-3-3ε): gained; reference no binding detected

B2: human 14-3-3 isoform η (recombinant, MBP tag removed) (natural protein, UniProt Q04917 1-246, looked up)
chain: MGDREQLLQRARLAEQAERYDDMASAMKAVTELNEPLSNEDRNLLSVAYKNVVGARRSSWRVISSIEQKTMADGNEKKLEKVKAYREKIEKELETVCNDVLSLLDKFLIKNCNDFQYESKVFYLKMKGDYYRYLAEVASGEKKNSVVEASEAAYKEAFEISKEQMQPTHPIRLGLALNFSVFYYEIQNAPEQACLLAKQAFDDAIAELDTLNEDSYKDSTLIMQLLRDNLTLWTSDQQDEEAGEGN
notes: 14-3-3 eta, human; Expressed from pMAL2CX plasmids; also called 14-3-3η; source: E. coli BL21DE3, purified (maltose-agarose, Factor Xa, anion exchange)
Kd (pS1444): 85 nM
fold decrease in affinity against pS1444 (R1441C/pS1444): ≥ 30 fold

Continued, in another order:

Binding to 14-3-3 isoform σ, in words (human 14-3-3 isoform σ): worst binding
Binding to 14-3-3γ, in words (human 14-3-3γ; FP buffer pH 7): micromolar affinities
Binding to 14-3-3γ, in words (human 14-3-3γ; FP buffer pH 7, listed as Phosphorylated T2524): clearly binds with micromolar affinity
Molecule: HIEVRKELAEKMRRpTSVE [pT2524, fluorescein-labeled phosphopeptide of the LRRK2 C-terminus comprising pT2524]
Binding to the human 14-3-3 isoforms, in words [1]: Micromolar affinities; also recorded: low micromolar range

Kd (pS1444): 195 nM
fold decrease in affinity against pS1444 (R1441C/pS1444): ≥ 30 fold
B1: human 14-3-3 isoform θ (recombinant, MBP tag removed) (natural protein, UniProt P27348 1-245, looked up)
chain: MEKTELIQKAKLAEQAERYDDMATCMKAVTEQGAELSNEERNLLSVAYKNVVGGRRSAWRVISSIEQKTDTSDKKLQLIKDYREKVESELRSICTTVLELLDKYLIANATNPESKVFYLKMKGDYFRYLAEVACGDDRKQTIDNSQGAYQEAFDISKKEMQPTHPIRLGLALNFSVFYYEILNNPELACTLAKTAFDEAIAELDTLNEDSYKDSTLIMQLLRDNLTLWTSDSAGEECDAAEGAEN
notes: 14-3-3 theta, human; Expressed from pMAL2CX plasmids; also called 14-3-3θ; source: E. coli BL21DE3, purified (maltose-agarose, Factor Xa, anion exchange)

Kd (pS1444): 802 nM
fold decrease in affinity against pS1444 (R1441C/pS1444): ≥ 30 fold
B3: human 14-3-3 isoform σ (recombinant, MBP tag removed) (natural protein, UniProt P31947 1-248, looked up)
chain: MERASLIQKAKLAEQAERYEDMAAFMKGAVEKGEELSCEERNLLSVAYKNVVGGQRAAWRVLSSIEQKSNEEGSEEKGPEVREYREKVETELQGVCDTVLGLLDSHLIKEAGDAESRVFYLKMKGDYYRYLAEVATGDDKKRIIDSARSAYQEAMDISKKEMPPTNPIRLGLALNFSVFHYEIANSPEEAISLAKTTFDEAMADLHTLSEDSYKDSTLIMQLLRDNLTLWTADNAGEEGGEAPQEPQS
notes: 14-3-3 sigma, human; Expressed from pMAL2CX plasmids; also called 14-3-3σ; source: E. coli BL21DE3, purified (maltose-agarose, Factor Xa, anion exchange)
